These results are taken from paper PMC10148134.

Test [1] addresses toad B. maxima serum albumin (Bm-SA) (Bombina maxima) (UniProt Q3T478). The experiment in a line: BLI; 10 μg/mL proteins (OVA, Bm-SA) coupled on AR2G or SA sensors; various concentrations of βγ-CAT as analyte, PBS as buffer; association 300 s, dissociation 180 s; Octet R2; 1:1 model.
For another test, the target named is ovalbumin (OVA) (UniProt P01012). Described as above.
UniProt P01012, sequence (P01012 whole entry): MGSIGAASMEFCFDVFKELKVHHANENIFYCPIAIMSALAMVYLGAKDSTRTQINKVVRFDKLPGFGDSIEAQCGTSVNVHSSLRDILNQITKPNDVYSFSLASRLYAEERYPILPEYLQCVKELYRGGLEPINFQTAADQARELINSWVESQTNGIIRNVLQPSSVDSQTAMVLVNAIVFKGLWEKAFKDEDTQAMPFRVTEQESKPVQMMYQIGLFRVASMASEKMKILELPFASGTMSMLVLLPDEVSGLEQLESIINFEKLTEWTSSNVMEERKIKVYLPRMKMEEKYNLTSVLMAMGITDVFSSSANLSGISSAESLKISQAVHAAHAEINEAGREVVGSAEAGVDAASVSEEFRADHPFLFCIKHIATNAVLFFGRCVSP

UniProt Q3T478, sequence (Q3T478 23-607): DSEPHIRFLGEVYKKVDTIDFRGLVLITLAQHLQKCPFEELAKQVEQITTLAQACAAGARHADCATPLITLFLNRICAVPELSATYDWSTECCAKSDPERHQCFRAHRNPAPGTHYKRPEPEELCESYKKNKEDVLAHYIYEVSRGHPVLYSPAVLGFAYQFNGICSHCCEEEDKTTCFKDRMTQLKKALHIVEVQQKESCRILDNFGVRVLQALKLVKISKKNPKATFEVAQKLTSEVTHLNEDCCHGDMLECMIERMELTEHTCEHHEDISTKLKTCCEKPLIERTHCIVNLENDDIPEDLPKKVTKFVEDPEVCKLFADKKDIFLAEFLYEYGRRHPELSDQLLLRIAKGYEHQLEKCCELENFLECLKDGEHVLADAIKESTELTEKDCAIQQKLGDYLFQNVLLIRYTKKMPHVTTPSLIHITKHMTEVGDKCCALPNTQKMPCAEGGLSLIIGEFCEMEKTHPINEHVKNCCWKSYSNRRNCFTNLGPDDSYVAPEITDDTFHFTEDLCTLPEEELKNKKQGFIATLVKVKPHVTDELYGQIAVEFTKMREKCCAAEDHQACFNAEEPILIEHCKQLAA

The Kd is the constant that tells how readily two partners part at equilibrium. Low readings indicate higher affinity, high ones lower affinity. As for “βγ-CAT, pore-forming protein (PFP) and trefoil factor complex of BmALP1 and BmTFF3 from toad Bombina maxima”, the Kd in test [1] is 24.7 nM; with ovalbumin (OVA) it was 23.3 nM.
